# Assay results published in the supplement of paper PMC9170038.
# Tested on: MS2 coat protein
# Test: apparent KD of MS2 coat protein; designed switch direction (-1 OFF switch, 1 ON switch): -1; higher = weaker reporter binding
# Method in brief: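 The apparent KD reported per design is the median over clusters of curve fits to normalised cluster fluorescence. The RNA switches were transcribed on Illumina chips by stalled E. coli RNA polymerase. SNAP-549-labelled MS2 coat protein was titrated from 0.7 or 1.5 nM, doubling up to 3 µM, in Tris-HCl pH 7.5 buffer containing KCl, MgCl2, BSA, DTT, tRNA and Tween-20, with no input, 200 uM small-molecule ligand, or an oligonucleotide input.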
# [1] = Eterna round: R95, input ligand: FMN 200 uM
# [2] = Eterna round: R95, input ligand: microRNA oligo, concentration not stated
# [3] = Eterna round: R95, input ligand: none
# [4] = input ligand: microRNA oligo, concentration not stated
Sequence,apparent KD of MS2 coat protein (input ligand: FMN 200 uM) [nM],apparent KD of MS2 coat protein (input ligand: none) [nM],apparent KD of MS2 coat protein [1] [nM],apparent KD of MS2 coat protein [2] [nM],apparent KD of MS2 coat protein [3] [nM],apparent KD of MS2 coat protein [4] [nM]
"ACUUAUAGAGGAUAUACAGAAUAUUACAUGAGGAUCACCCAUGUUCUUCAAUGUAUAUAUGUAGAAGGCUAAGGAU [Mat - Exclusion 5 - JL Mod - D6] (Eterna round: R97, puzzle: Exclusion 5)",299,89.9,–,–,–,–
"ACUUAUAGAGGAUAUACAGAAUAUUACAUGAGGAUCACCCAUGUUCUUCAAUGUAUAUAUGUAGAAGGCUAAGGUU [Mat - Exclusion 5 - JL Mod - D7] (Eterna round: R97, puzzle: Exclusion 5)",286,131,–,–,–,–
"ACUUAUAGAGGAUAUACAGUUAAUUACAUGAGGAUCACCCAUGUUCUUCAAUGUAUAUAAGUAGAAGGCUAAGAAA [Mat - Exclusion 5 - Eli Mod - D5] (Eterna round: R97, puzzle: Exclusion 5)",58,13.5,–,–,–,–
"ACUUGUGUUGAGGAUAUGCGACGCAACGGUGGAGCAGAAGGCGGCACAUGAGGAUCACCCAUGUCAGUUCGCGA [eternacac ex6r4 sub33] (Eterna round: R97, puzzle: Exclusion 6)",86.3,14.6,–,–,–,–
AGAAAGCAAGGAUAUACGAGGAGAAGGAGGAAAGUUAAAGGACAUGAGGAUCACCCAUGUAGAAGGUGCGAGAA [JR_Exclu2_Sub042] (puzzle: Exclusion 2),–,–,33.3,58.9,55.8,–
AGAAAGUCAGGAUAUACAUGAGGAUCACCCAUGUAAAGAAAAGAAAGGGAAGGAAGAGGUAGAAGGGACAAGAA [JR_Exclu3_Sub031] (puzzle: Exclusion 3),–,–,26.5,22.7,23,–
"AGAAGUAGUACCCGAUCCUACAUGAGGAUCACCCAUGUAGCUAGACGUGCACGCGAUGCUCGUCAGACUACCAGAUG [salish99_TOv1_r3_032] (puzzle: Sensor v3, turn-off variant 1)",–,–,153,144,189,–
AGACAGUCAGGAUAUACAUGAGGAUCACCCAUGUUGAGAUGAGAAAGGGCAGGAAGAGGUAGAAGGGACGAGAG [JR_Exclu3_Sub036] (puzzle: Exclusion 3),–,–,31,24.7,30.4,–
"AGACCGAUAGCAGGAUAUAGGACGACGAGAGCGCUAGAAGGGCUGACGACAUGAGGAUCACCCAUGUUUUCGUCUCAACAGGCA [Eternabot solution 22] (Eterna round: R96, puzzle: Exclusion NG 1)",31,29.2,–,–,–,23.1
"AGACGGUGAGGAUAUAGACGCAAUCACAUGAGGAUCACCCAUGUGACACGUGAUGGCUGGUUAGAAGGCGCGAAUC [Eternabot (L1) Solution 37] (Eterna round: R97, puzzle: Exclusion 5)",17.1,17.4,–,–,–,–
"AGACGUGCAGUGCUCCUCCACAUGAGGAUCACCCAUGUCACUGAGGAUAUCUGCAGGUAACUGCUGGAGAAGGCAGAAAGAAUG [Atrien] (Eterna round: R96, puzzle: Exclusion NG 3)",81.9,29.5,–,–,–,22.1
"AGACUCAUUGUGAGGAUAUCGGGUCAACGAGACUACGAGAAGGCACAUGAGGAUCACCCAUGUAGCCACGGCUA [Eternabot (L2) Solution 95] (Eterna round: R97, puzzle: Brourd's mod of Exclusion 4)",94.8,240,–,–,–,–
"AGAGAGUCAGGAUAUGACGAAGAGAACAUGAGGAUCACCCAUGUUGCUUCGUUUUUAUCGUCAGAAGGGACGAACU [JR_Ex5_Sub088] (Eterna round: R97, puzzle: Exclusion 5)",13.8,13.9,–,–,–,–
"AGAGUGCUGCGAGGAUAUACAUGAGGAUCACCCAUGUAAUCGUCUGAGGCAAAGCCUCAGACGAAGUAGAAGGCGCAGUACUCA [Mat - Exclusion NG 2 - Mod of JL - D27] (Eterna round: R96, puzzle: Exclusion NG 2)",20,17.9,–,–,–,12.5
"AGAUAACAUGAGGAUCACCCAUGUCAGGAUAUCGACUGAACAGCUUCGGCUGUUCAGUCGAGAAGGGACAAUUA [Brourdxlusion 9 - Jieux - Exclusion 1] (Eterna round: R97, puzzle: Exclusion 1)",84.1,61.2,–,–,–,–
"AGAUCACAUGAGGAUCACCCAUGUCAGGAUAUCGUCACUGGAGCUGCGGCUCCAGUGACGAGAAGGGAUAAUUA [E1/4-A3] (Eterna round: R97, puzzle: Exclusion 1)",92.4,52,–,–,–,–

Sequence,apparent KD of MS2 coat protein (input ligand: FMN 200 uM) [nM],apparent KD of MS2 coat protein (input ligand: none) [nM],apparent KD of MS2 coat protein [1] [nM],apparent KD of MS2 coat protein [2] [nM],apparent KD of MS2 coat protein [3] [nM],apparent KD of MS2 coat protein [4] [nM]
AGAUCACAUGAGGAUCACCCAUGUCAGGAUAUGAUACUAUGUACUUCGGUACAUAGUAUCAGAAGGGACAUAAA [Ex1-3: 69] (puzzle: Exclusion 1),–,–,31.5,140,89.2,–
"AGAUCGUCAGGAUAUACAUGAGGAUCACCCAUGUAUAGUCUAAAUUUGACUAUAAAGUGUAGAAGGGACGAUCG [Exclusion 3 (MOD6 of #1 Marzena11)] (Eterna round: R97, puzzle: Exclusion 3)",51.5,18.1,–,–,–,–
"AGAUGCUCAAGUCGACAUGAGGAUCACCCAUGUACAGUAAACGAGGAUAUCCGAGAUAAAUAAUAGGAGAAGGCGUGAUCAUGA [Mat - Exclusion NG 3 - Mod of JL - D55] (Eterna round: R96, puzzle: Exclusion NG 3)",337,86.3,–,–,–,66
"AGAUGCUCAAGUCGACAUGAGGAUCACCCAUGUACAGUUAAUGAGGAUAUCCGAGAUAAAUAAUAGGAGAAGGCGUGAACAUGA [Ex NG3 #8] (Eterna round: R96, puzzle: Exclusion NG 3)",72.4,94.1,–,–,–,50.6
"AGAUGCUCAAGUCGACAUGAGGAUCACCCAUGUACAGUUAAUGAGGAUAUCCGAGAUAAAUAAUAGGAGAAGGCGUGAUCAUGA [Ex NG3 #7] (Eterna round: R96, puzzle: Exclusion NG 3)",284,458,–,–,–,383
AGAUGGCGAGGAUAUACAUGAGGAUCACCCAUGUGAGAAGAGAAAGUGAGGAAGAAAAGUAGAAGGCGCUGUCA [Mat - Exclusion 3 - Mod of Salish D21] (puzzle: Exclusion 3),–,–,200,60.9,57,–
"AGAUUAAUAGUAAGGAUAUGAUGCAGGAAACUGCGUCAGAAGGUACAUGAGGAUCACCCAUGUUAAACUAAUUU [Explosion 7 - Jieux - Brourd's mod of Exclusion 4] (Eterna round: R97, puzzle: Brourd's mod of Exclusion 4)",17.4,15,–,–,–,–
"AGAUUGUUAGGAUAUUCGGACCGCUACGAAGCGUGGUCCAGGGAGAAGGAACAUGAGGAUCACCCAUGUGACCA [Eternabot (L2) Solution 33] (Eterna round: R97, puzzle: Exclusion 4)",69.7,26,–,–,–,–
"AGCAAGUUAGGAUAUCUUAAAGUUAGGUGAUGUCCUGUUUGAGAGAAGGAACAUGAGGAUCACCCAUGUGGUCA [Eternabot (L2) Solution 56] (Eterna round: R97, puzzle: Exclusion 4)",58.3,62.6,–,–,–,–
"AGCCACAGAGGAUAUACAUACAUCCAGUAGUAGAGUCUACUACAUGAGGAUCACCCAUGUAGAAGGCUGUGGCA [Omei Ex2 BD B16] (Eterna round: R97, puzzle: Exclusion 2)",419,37.1,–,–,–,–
"AGCCCUGCAGGAUAUGCCCGGGAUAACAUGAGGAUCACCCAUGUGACCGAUUGUUAAUCUGCAGAAGGGCAUGGGA [JL-EX5-4.18 ViennaUCT mod] (Eterna round: R97, puzzle: Exclusion 5)",313,563,–,–,–,–
"AGCCGUCUAGGAUAUACAUAAGAUCGGCAGUCUCCGUCGAGACAUGAGGAUCACCCAUGUAGAAGGAGGCGGGA [EX2 A.22] (Eterna round: R97, puzzle: Exclusion 2)",208,47.2,–,–,–,–
"AGCCUAGCAGGAUAUGCCCGGGAUAACAUGAGGAUCACCCAUGUGACCGAUUGAUGUCCUGCAGAAGGGCUAGGGA [JL-EX5-4.00 ViennaUCT mod] (Eterna round: R97, puzzle: Exclusion 5)",20.9,18.5,–,–,–,–
"AGCCUAGCAGGAUAUGCCCGGGAUAACAUGAGGAUCACCCAUGUGACUGAUUGAUAUCUUGCAGAAGGGCUAGGGA [JL-EX5-4.06 ViennaUCT mod] (Eterna round: R97, puzzle: Exclusion 5)",187,25.5,–,–,–,–
"AGCGAAUAAGCAGGAUAUGAGAAUAGAUAGAGCUCAGAAGGGCUACAUGAGGAUCACCCAUGUAAAGUCUUGAGGCUGCGUGGU [Prohibition 13 - Jieux - Exclusion NG 1] (Eterna round: R96, puzzle: Exclusion NG 1)",22.5,18.4,–,–,–,14.4
"AGCGAGGCAGGAUAUACAUGAGGAUCACCCAUGUACUUGUAUGGCGUGGAACAUCGUGGUAGAAGGGCCGUGCU [EX3 #81] (Eterna round: R97, puzzle: Exclusion 3)",101,355,–,–,–,–
